Patent US6136558A, “Heregulin variants” (Genentech, Inc., priority 1998, dated 2000)

Legend:
[1] = molecular target: ErbB-3 receptor-Ig fusion (human) (UniProt P21860); assay: phage ELISA, ratio to wild-type HRG8 phage
[2] = molecular target: ErbB-3 receptor-Ig fusion (human) (UniProt P21860); assay: displacement of 125I-HRG-β1 177-244 from ErbB-3-Ig
[3] = molecular target: ErbB-4 receptor-Ig fusion (human) (UniProt Q15303); assay: displacement of 125I-HRG-β1 177-244 from ErbB-4-Ig

Row | Binder | EC50(wt)/EC50(mut) [1] | EC50 [2] [nM] | EC50 [3] [nM]
1 | D1 (phage) (ligand) SHLVKCAEKEKTFCVNGGECYKVRILSNPSRYLCKCPNEFTGDRCQNYVIAS | 11 | – | –
2 | HRG59 (phage) (ligand) SHLVKCAEKEKTFCVNGGECYRVKTLSNPSRYLCKCPNEFTGDRCQNYVIAS | 26 | – | –
3 | Trx-HRG-β1 146-244 S177A fusion (ligand) DDDDKAYVSSESPIRISVSTEGANTSSSTSTSTTGTAHLVKCAEKEKTFCVNGGECFMVKDLSNPSRYLCKCPNEFTGDRCQNYVMASFYKHLGIEFMEAEELY | – | 129 | 54.6
4 | Trx-HRG-β1 146-244 R207A fusion (ligand) DDDDKAYVSSESPIRISVSTEGANTSSSTSTSTTGTSHLVKCAEKEKTFCVNGGECFMVKDLSNPSAYLCKCPNEFTGDRCQNYVMASFYKHLGIEFMEAEELY | – | 245 | 24.3
5 | Trx-HRG-β1 146-244 F189A fusion (ligand) DDDDKAYVSSESPIRISVSTEGANTSSSTSTSTTGTSHLVKCAEKEKTACVNGGECFMVKDLSNPSRYLCKCPNEFTGDRCQNYVMASFYKHLGIEFMEAEELY | – | 975 | 565
6 | Trx-HRG-β1 146-244 E195A fusion (ligand) DDDDKAYVSSESPIRISVSTEGANTSSSTSTSTTGTSHLVKCAEKEKTFCVNGGACFMVKDLSNPSRYLCKCPNEFTGDRCQNYVMASFYKHLGIEFMEAEELY | – | 42 | 13.2
7 | Trx-HRG-β1 146-244 G194A fusion (ligand) DDDDKAYVSSESPIRISVSTEGANTSSSTSTSTTGTSHLVKCAEKEKTFCVNGAECFMVKDLSNPSRYLCKCPNEFTGDRCQNYVMASFYKHLGIEFMEAEELY | – | 1210 | 275
8 | Trx-HRG-β1 146-244 K211A fusion (ligand) DDDDKAYVSSESPIRISVSTEGANTSSSTSTSTTGTSHLVKCAEKEKTFCVNGGECFMVKDLSNPSRYLCACPNEFTGDRCQNYVMASFYKHLGIEFMEAEELY | – | 248 | 124
9 | Trx-HRG-β1 146-244 H178A fusion (ligand) DDDDKAYVSSESPIRISVSTEGANTSSSTSTSTTGTSALVKCAEKEKTFCVNGGECFMVKDLSNPSRYLCKCPNEFTGDRCQNYVMASFYKHLGIEFMEAEELY | – | 476 | 138
10 | Trx-HRG-β1 146-244 Y224A fusion (ligand) DDDDKAYVSSESPIRISVSTEGANTSSSTSTSTTGTSHLVKCAEKEKTFCVNGGECFMVKDLSNPSRYLCKCPNEFTGDRCQNAVMASFYKHLGIEFMEAEELY | – | 339 | 24.5
11 | Trx-HRG-β1 146-244 P205A fusion (ligand) DDDDKAYVSSESPIRISVSTEGANTSSSTSTSTTGTSHLVKCAEKEKTFCVNGGECFMVKDLSNASRYLCKCPNEFTGDRCQNYVMASFYKHLGIEFMEAEELY | – | 39.5 | 34.2
12 | Trx-HRG-β1 146-244 G193A fusion (ligand) DDDDKAYVSSESPIRISVSTEGANTSSSTSTSTTGTSHLVKCAEKEKTFCVNAGECFMVKDLSNPSRYLCKCPNEFTGDRCQNYVMASFYKHLGIEFMEAEELY | – | 26.9 | 76.3
13 | Trx-HRG-β1 146-244 V199A fusion (ligand) DDDDKAYVSSESPIRISVSTEGANTSSSTSTSTTGTSHLVKCAEKEKTFCVNGGECFMAKDLSNPSRYLCKCPNEFTGDRCQNYVMASFYKHLGIEFMEAEELY | – | – | 246
14 | Trx-HRG-β1 146-244 L179A fusion (ligand) DDDDKAYVSSESPIRISVSTEGANTSSSTSTSTTGTSHAVKCAEKEKTFCVNGGECFMVKDLSNPSRYLCKCPNEFTGDRCQNYVMASFYKHLGIEFMEAEELY | – | 394 | 51.7
15 | Trx-HRG-β1 146-244 T217A fusion (ligand) DDDDKAYVSSESPIRISVSTEGANTSSSTSTSTTGTSHLVKCAEKEKTFCVNGGECFMVKDLSNPSRYLCKCPNEFAGDRCQNYVMASFYKHLGIEFMEAEELY | – | 145 | 32.7
16 | Trx-HRG-β1 146-244 N192A fusion (ligand) DDDDKAYVSSESPIRISVSTEGANTSSSTSTSTTGTSHLVKCAEKEKTFCVAGGECFMVKDLSNPSRYLCKCPNEFTGDRCQNYVMASFYKHLGIEFMEAEELY | – | 1640 | 696
17 | Trx-HRG-β1 146-244 F216A fusion (ligand) DDDDKAYVSSESPIRISVSTEGANTSSSTSTSTTGTSHLVKCAEKEKTFCVNGGECFMVKDLSNPSRYLCKCPNEATGDRCQNYVMASFYKHLGIEFMEAEELY | – | 2550 | 173
18 | Trx-HRG-β1 146-244 E215A fusion (ligand) DDDDKAYVSSESPIRISVSTEGANTSSSTSTSTTGTSHLVKCAEKEKTFCVNGGECFMVKDLSNPSRYLCKCPNAFTGDRCQNYVMASFYKHLGIEFMEAEELY | – | 156 | 104
19 | Trx-HRG-β1 146-244 G218A fusion (ligand) DDDDKAYVSSESPIRISVSTEGANTSSSTSTSTTGTSHLVKCAEKEKTFCVNGGECFMVKDLSNPSRYLCKCPNEFTADRCQNYVMASFYKHLGIEFMEAEELY | – | 668 | 608
20 | Trx-HRG-β1 146-244 K200A fusion (ligand) DDDDKAYVSSESPIRISVSTEGANTSSSTSTSTTGTSHLVKCAEKEKTFCVNGGECFMVADLSNPSRYLCKCPNEFTGDRCQNYVMASFYKHLGIEFMEAEELY | – | 45.4 | 16.9
21 | A1 (phage) (ligand) WRLVPCAEKEKTFCVNGGECFMVKDLSNPSRYLCKCPNEFTGDRCQNYVMAS | 0.55 | – | –

Row | Binder | EC50(wt)/EC50(mut) [1] | EC50 [2] [nM] | EC50 [3] [nM]
22 | H5 (phage) (ligand) SHLVKCAEKEKTFCVNGGECFMVKDLSNPSRYLCKCPNEFTGERCQNYVMAS | 1.5 | – | –
23 | D10 (phage) (ligand) SHLVKCAEKEKTFCVNGGECYMVKTLSNPSRYLCKCPNEFTGDRCQNYVMAS | 2.1 | – | –
24 | I1 (phage) (ligand) SHLVKCAEKEKTFCVNGGECFMVKDLSNPSRYLCKCPNEFTGDRCQWYVIAS | 13 | – | –
25 | A4 (phage) (ligand) WSLVKCAEKEKTFCVNGGECFMVKDLSNPSRYLCKCPNEFTGDRCQNYVMAS | < 0.3 | – | –
26 | A2 (phage) (ligand) WSLQPCAEKEKTFCVNGGECFMVKDLSNPSRYLCKCPNEFTGDRCQNYVMAS | 0.87 | – | –
27 | SHLVKCAEKEKTFCVNGGECYRVKTYGYLMCKCPNEFTGDRCQNYVMAS (ligand) [HRG57 (phage)] | 24 | – | –
28 | SHLVKCAEKEKTFCVNGGECYRVKTYGYLMCKCPNEFTGDRCQHYVIAS (ligand) [HRG71 (phage)] | 79 | – | –
29 | SHLVKCAEKEKTFCVNGGECFMVKDPSRYLCKCPNEFTGDRCQNYVMAS (ligand) [HRG63 (phage)] | 1.1 | – | –
30 | SHLVKCAEKEKTFCVNGGECFMVKDYRYRMCKCPNEFTGDRCQNYVIAS (ligand) [E3 (phage)] | 16 | – | –
31 | SHLVKCAEKEKTFCVNGGECFMVKDYGYLMCKCPNEFTGDRCQNYVIAS (ligand) [HRG48 (phage)] | 49 | – | –
32 | B5 (phage) (ligand) SHLVKCGWDREGFCVNGGECFMVKDLSNPSRYLCKCPNEFTGDRCQNYVIAS | 26 | – | –
33 | HRG60 (phage) (ligand) SHLVKCGEEREGFCVNGGECYRVKTLSNPSRYLCKCPNEFTGDRCQNYVIAS | 63 | – | –
34 | B10 (phage) (ligand) SHLVKCDKSREGFCVNGGECFMVKDLSNPSRYLCKCPNEFTGDRCQNYVIAS | 9.3 | – | –
35 | HRG53 (phage) (ligand) SHLVKCGEEREGFCVNGGECYRVKTLSNPSRYLCKCPNEFTGDRCQNYVMAS | 26 | – | –
36 | HRG37 (phage) (ligand) WELVPCGWDREGFCVNGGECFMVKDLSNPSRYLCKCPNEFTGDRCQNYVIAS | 13 | – | –
37 | HRG56 (phage) (ligand) SHLVKCGEEREGFCVNGGECFMVKDLSNPSRYLCKCPNEFTGDRCQNYVIAS | 31 | – | –
38 | SHLVKCGEEREGFCVNGGECFMVKDYGYLMCKCPNEFTGDRCQNYVMAS (ligand) [HRG54 (phage)] | 12 | – | –
39 | SHLVKCGEEREGFCVNGGECYRVKTYGYLMCKCPNEFTGDRCQNYVIAS (ligand) [HRG62 (phage)] | 32 | – | –
40 | SHLVKCGEEREGFCVNGGECFMVKDYGYLMCKCPNEFTGDRCQNYVIAS (ligand) [HRG61 (phage)] | 29 | – | –
41 | SHLVKCGEEREGFCVNGGECYRVKTYGYLMCKCPNEFTGDRCQNYVMAS (ligand) [HRG55 (phage)] | 13 | – | –
42 | recombinantly produced HRG-β1 177-244 (ligand) SHLVKCAEKEKTFCVNGGECFMVKDLSNPSRYLCKCPNEFTGDRCQNYVMASFYKHLGIEFMEAEELY | – | 9 | 14.8
